These results are taken from patent US20250066499A1 (SUNSHINE GUOJIAN PHARMACEUTICAL SHANGHAI, published 2025).

Usually Kd stands for the concentration at which binding is half-saturated. What is called koff is a measure of how fast the partners let go of each other. In general, kon refers to the second-order rate constant of association. By EC50 is commonly meant the concentration giving half of the maximal effect.

Experiment [1] addresses T1, CD73 protein on the surface of tumor cells (human, UniProt P21589 27-549).
T1 sequence (looked up): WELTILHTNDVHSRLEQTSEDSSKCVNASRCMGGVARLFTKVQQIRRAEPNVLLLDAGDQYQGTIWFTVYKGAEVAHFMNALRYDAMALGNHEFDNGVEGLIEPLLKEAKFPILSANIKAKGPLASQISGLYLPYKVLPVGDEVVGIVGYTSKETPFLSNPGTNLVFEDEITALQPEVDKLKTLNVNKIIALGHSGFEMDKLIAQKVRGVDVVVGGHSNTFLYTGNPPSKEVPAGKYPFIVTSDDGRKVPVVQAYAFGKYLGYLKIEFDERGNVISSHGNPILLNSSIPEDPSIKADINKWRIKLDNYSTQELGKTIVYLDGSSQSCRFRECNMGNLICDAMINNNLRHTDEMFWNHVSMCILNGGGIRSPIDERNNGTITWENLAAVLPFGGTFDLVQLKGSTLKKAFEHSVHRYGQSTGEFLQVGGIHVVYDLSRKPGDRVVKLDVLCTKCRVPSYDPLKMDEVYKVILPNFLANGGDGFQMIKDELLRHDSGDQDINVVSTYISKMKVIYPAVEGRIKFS
Description: cell-based or functional assay.

For another experiment, the target named is T2, human CD73-His protein (human, UniProt P21589 27-549).
T2 construct: Expressed in HEK-293F with a signal peptide that is not specified; In the ELISAs it was biotinylated with EZ-Link NHS-Biotin (CD73-biotin) and captured on streptavidin; in SPR and the enzyme assay it was used as CD73-His; also called CD73-his antigen; CD73-biotin
T2 sequence: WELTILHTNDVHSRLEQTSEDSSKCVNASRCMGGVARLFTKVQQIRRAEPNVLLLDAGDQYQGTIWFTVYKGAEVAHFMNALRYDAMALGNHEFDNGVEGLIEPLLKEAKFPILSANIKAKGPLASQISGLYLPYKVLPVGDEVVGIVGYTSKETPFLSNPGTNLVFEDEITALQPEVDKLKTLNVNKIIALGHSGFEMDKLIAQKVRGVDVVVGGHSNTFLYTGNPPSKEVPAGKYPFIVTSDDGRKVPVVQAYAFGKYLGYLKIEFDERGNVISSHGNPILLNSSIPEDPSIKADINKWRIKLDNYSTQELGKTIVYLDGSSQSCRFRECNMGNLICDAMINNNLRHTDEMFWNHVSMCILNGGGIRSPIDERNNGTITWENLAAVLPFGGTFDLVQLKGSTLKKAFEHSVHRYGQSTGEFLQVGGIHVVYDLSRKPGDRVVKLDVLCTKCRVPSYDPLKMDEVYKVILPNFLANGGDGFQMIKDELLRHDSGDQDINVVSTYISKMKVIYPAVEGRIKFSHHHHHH
Description: SPR Biacore 8K, antibody captured on Protein A/G, CD73-his in flow, 1:1 model. On the procedure:
Antibodies to be tested were captured using a chip covalently coupled with Protein A/G, with the following operational parameters: antibody concentration of 2 μg/mL, contact time of 75 seconds, flow rate of 10 μL/min, and regeneration contact time of 30 seconds. The CD73-his antigen was diluted in HBS-EP pH 7.4 buffer, with the highest concentration being 100 nM, and diluted in a 2-fold gradient down to 0.78 nM. Duplicate wells and a 0 concentration point were set up. 6M guanidine hydrochloride solution was used as the regeneration buffer. Using the Biacore 8K, the samples were injected with the following parameters: binding time of 180 seconds, dissociation time of 900 seconds, flow rate of 30 μL/min, and regeneration contact time of 30 seconds. After the procedure was completed, the Biacore 8K Evaluation Software was used to analyze the data according to the “1:1 binding kinetics model,” yielding the binding kinetics parameters of each antibody to CD73.

Experiment [2] addresses T1, CD73 protein on the surface of tumor …. Description: flow cytometry on H292 cells. How it is done: (§1) MDA-MB-231 cells (triple-negative breast cancer), H292 cells (human lung cancer cells), and A375 cells (human malignant melanoma cells), all in their logarithmic growth phase, were collected respectively. The cells were washed once with RPMI-1640 basic medium and then adjusted to a cell concentration of 2.0×10⁶ cells/mL in RPMI-1640 basic medium containing 1% BSA (antibody diluent). The antibodies to be tested were diluted in a 3-fold gradient using the antibody diluent, and 100 μL of each concentration of the test antibodies was mixed with 100 μL of cells in a 96-well cell culture plate and incubated at 4° C. for 1 hour (the maximum working concentration of the test antibodies was 500 nM, with 1×10⁵ target cells per well). The cells were washed twice with PBS to remove unbound test antibodies. Then, the cells were mixed with 200 μL of 5 μg/mL FITC-labeled goat anti-human IgG-Fc secondary antibody and incubated at 4° C. for 30 minutes. The cells were washed twice again with PBS to remove unbound secondary antibodies, and finally, the cells were resuspended in 200 μL of PBS. The binding affinity of the test antibodies to the cells was determined using a flow cytometer.
(In general: Flow cytometry measures light scatter and fluorescence of single cells or particles in a stream.)

The target is the same in experiment [3]. Kind of experiment: flow cytometry on A375 cells. On the procedure:
as §1

A further experiment deals with T3, mouse CD73 protein (mouse, UniProt Q61503 29-549, limits assumed).
T3 construct: Bought protein; also called CD73-mouse
T3 sequence (looked up): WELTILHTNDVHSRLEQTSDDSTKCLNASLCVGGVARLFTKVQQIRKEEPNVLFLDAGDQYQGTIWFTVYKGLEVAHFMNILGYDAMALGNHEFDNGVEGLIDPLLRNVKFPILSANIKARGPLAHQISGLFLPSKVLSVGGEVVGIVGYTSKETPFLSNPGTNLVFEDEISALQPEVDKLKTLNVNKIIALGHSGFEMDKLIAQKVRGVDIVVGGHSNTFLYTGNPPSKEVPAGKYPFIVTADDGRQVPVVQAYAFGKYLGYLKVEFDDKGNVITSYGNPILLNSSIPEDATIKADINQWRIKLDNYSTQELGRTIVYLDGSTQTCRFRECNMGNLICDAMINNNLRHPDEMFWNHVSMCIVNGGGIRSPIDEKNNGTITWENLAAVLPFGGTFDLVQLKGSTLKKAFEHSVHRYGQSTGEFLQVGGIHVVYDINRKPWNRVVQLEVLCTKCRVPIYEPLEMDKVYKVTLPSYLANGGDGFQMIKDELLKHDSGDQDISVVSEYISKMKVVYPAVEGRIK
Kind of experiment: SPR Biacore 8K, antibody captured on Protein A/G. (In general: Surface plasmon resonance follows binding to a sensor surface in real time, without labels.)

B1: 48A11-HuV33 (antibody, human IgG4, V domains shown)
VH: QVQLVQSGAEVKKPGASVKVSCKASGYTFTSYWMHWVRQAPGQGLEWIGEINPSIGRTNYNEKFKSRVTLTRDTSTSTAYMELSSLRSEDTAVYYCARRVYGTMDYWGQGTLVTVSS
VL: DIQMTQSPSSLSASVGDRVTITCKASQDINSYLSWFQQKPGKSPKLLIYRANIWVDGVPSRFSGSGSGQDYTFTISSLQPEDIATYYCLQYDELYTFGQGTKVEIK
notes: Humanized
B1: in experiment [1], the “IC50, inhibition of CD73 enzyme activity on A375 cells” value was determined as 1.48 nM; the “IC50, inhibition of CD73 enzyme activity on H292 cells” value was determined as 0.859 nM; the “IC50, inhibition of CD73 enzyme activity on MDA-MB-231 cells” value was determined as 0.566 nM. In the experiment with human CD73-His protein, this molecule displayed a Kd of 2.26 nM, a koff of 0.000381 s⁻¹ and a kon of 168000 M⁻¹ s⁻¹. Moreover, the EC50 in experiment [2] is 2.31 nM. In addition, in experiment [3], the midpoint of the response, the EC50, lay at 0.789 nM. Besides, the binding result in the experiment with mouse CD73 protein is on record as “no binding”.

B2: 56B10-HuV31 (antibody, human IgG4, V domains shown)
VH: QVQLQQSGAEVKKPGASVKVSCKASGYTFTRYYIYWVRQRPGQGLEWIGWIYPGNFNTKYNEKFKGRATLTADTSASTAYMELSSLTSEDTAVYYCARDVYDYAGFAYWGQGTLVTVSS
VL: DIQLTQSPSFLSASVGDRVTITCKASQGVATAVAWYQQKPGQSPKLLIYWASTRHTGVPDRFSGSGSGTEFTLTISSLQPEDFATYYCQQYSSYPWTFGQGTKVEIK
notes: Humanized
Consider B2, for which, in experiment [1], the “IC50, inhibition of CD73 enzyme activity on A375 cells” value was found to be 1.34 nM; the “IC50, inhibition of CD73 enzyme activity on H292 cells” value came out at 0.818 nM; the “IC50, inhibition of CD73 enzyme activity on MDA-MB-231 cells” value came to 0.61 nM. In the experiment with human CD73-His protein, this molecule returned a Kd of 1.89 nM, a koff of 0.000376 s⁻¹ and a kon of 199000 M⁻¹ s⁻¹. This molecule gave an EC50 in experiment [2] of 2.55 nM. The molecule further returned a 50% effective concentration (EC50) in experiment [3] of 1.27 nM. In the experiment with mouse CD73 protein, the binding result is “no binding”.
